Test results taken from the supplement of paper PMC9112550, “Optimization of the antimicrobial peptide Bac7 by deep mutational scanning” (BMC Biology, 2022).

These sequences were tested on Escherichia coli TOP10 (assay: shrunken log2 fold change of peptide-encoding DNA abundance (4.5 h post-induction vs induction); higher = less antimicrobial activity (less host growth inhibition)). Settings: time post-induction: 4.5 h; library: site-saturation at positions 5, 18, 19, 20.
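Note: peptides expressed intracellularly from a pBAD plasmid library in pooled LB shake-flask culture, induced with 0.3% L-arabinose, DNA abundance read by NGS, three biological replicates, DESeq2 with apeglm shrinkage.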

Sequence | shrunken log2 fold change
RRIRRRPPRLPRPRPRPFTPPRP | -0.0158
RRIRRRPPRLPRPRPRPFVKPRP | -0.373
RRIRRRPPRLPRPRPRPFVVPRP | 0.0981
RRIRRRPPRLPRPRPRPFWLPRP | 0.231
RRIRRRPPRLPRPRPRPFYMPRP | -0.198
RRIRRRPPRLPRPRPRPGAAPRP | 0.866
RRIRRRPPRLPRPRPRPGAEPRP | 2.68
RRIRRRPPRLPRPRPRPGAPPRP | 0.891
RRIRRRPPRLPRPRPRPGATPRP | 0.74
RRIRRRPPRLPRPRPRPGEMPRP | 0.122
RRIRRRPPRLPRPRPRPGEQPRP | 0.301
RRIRRRPPRLPRPRPRPGFNPRP | 0.0515
RRIRRRPPRLPRPRPRPGFPPRP | 3.88
RRIRRRPPRLPRPRPRPGKRPRP | 0.363
RRIRRRPPRLPRPRPRPGKVPRP | -0.037
RRIRRRPPRLPRPRPRPGMFPRP | 0.00289
RRIRRRPPRLPRPRPRPGMMPRP | 0.257
RRIRRRPPRLPRPRPRPGNAPRP | 0.304
RRIRRRPPRLPRPRPRPGNIPRP | -0.0618
RRIRRRPPRLPRPRPRPGPVPRP | 0.332
RRIRRRPPRLPRPRPRPGPYPRP | 0.18
RRIRRRPPRLPRPRPRPGQTPRP | 0.0182
RRIRRRPPRLPRPRPRPGQYPRP | -0.16
RRIRRRPPRLPRPRPRPGRAPRP | 0.648
RRIRRRPPRLPRPRPRPGSMPRP | -0.387

Sequence | shrunken log2 fold change
RRIRRRPPRLPRPRPRPGVIPRP | -0.0223
RRIRRRPPRLPRPRPRPGWAPRP | 0.573
RRIRRRPPRLPRPRPRPGWWPRP | 0.478
RRIRRRPPRLPRPRPRPHCAPRP | 0.419
RRIRRRPPRLPRPRPRPHDTPRP | -0.0817
RRIRRRPPRLPRPRPRPHEEPRP | 0.0957
RRIRRRPPRLPRPRPRPHEMPRP | 0.489
RRIRRRPPRLPRPRPRPHGKPRP | 0.0359
RRIRRRPPRLPRPRPRPHHDPRP | -0.298
RRIRRRPPRLPRPRPRPHHFPRP | -0.196
RRIRRRPPRLPRPRPRPHIRPRP | 0.00753
RRIRRRPPRLPRPRPRPHKEPRP | 0.0317
RRIRRRPPRLPRPRPRPHKHPRP | -0.165
RRIRRRPPRLPRPRPRPHLMPRP | 0.226
RRIRRRPPRLPRPRPRPHMTPRP | 0.00051
RRIRRRPPRLPRPRPRPHNAPRP | 2.48
RRIRRRPPRLPRPRPRPHNNPRP | -0.508
RRIRRRPPRLPRPRPRPHNVPRP | -0.916
RRIRRRPPRLPRPRPRPHNWPRP | -0.131
RRIRRRPPRLPRPRPRPHQGPRP | 0.0901
RRIRRRPPRLPRPRPRPHTHPRP | -0.11
RRIRRRPPRLPRPRPRPHVMPRP | 1.55
RRIRRRPPRLPRPRPRPHYEPRP | -0.508
RRIRRRPPRLPRPRPRPHYLPRP | -0.156
RRIRRRPPRLPRPRPRPHYNPRP | -0.202

Sequence | shrunken log2 fold change
RRIRRRPPRLPRPRPRPHYVPRP | -0.13
RRIRRRPPRLPRPRPRPIAIPRP | 0.108
RRIRRRPPRLPRPRPRPIATPRP | 0.0769
RRIRRRPPRLPRPRPRPICWPRP | 0.388
RRIRRRPPRLPRPRPRPIDAPRP | 0.227
RRIRRRPPRLPRPRPRPIEEPRP | 0.0745
RRIRRRPPRLPRPRPRPIFVPRP | 0.0119
RRIRRRPPRLPRPRPRPIGEPRP | -0.00811
RRIRRRPPRLPRPRPRPIGNPRP | 0.0912
RRIRRRPPRLPRPRPRPIGVPRP | 0.273
RRIRRRPPRLPRPRPRPIHFPRP | -0.174
RRIRRRPPRLPRPRPRPIHGPRP | -0.302
RRIRRRPPRLPRPRPRPIHMPRP | -0.206
RRIRRRPPRLPRPRPRPIHQPRP | -0.136
RRIRRRPPRLPRPRPRPIHRPRP | -0.041
RRIRRRPPRLPRPRPRPIIAPRP | 0.0198
RRIRRRPPRLPRPRPRPIIYPRP | -0.0798
RRIRRRPPRLPRPRPRPILVPRP | -0.106
RRIRRRPPRLPRPRPRPIMEPRP | 0.161
RRIRRRPPRLPRPRPRPIMKPRP | -0.0396
RRIRRRPPRLPRPRPRPIPSPRP | 0.247
RRIRRRPPRLPRPRPRPISPPRP | -0.00237
RRIRRRPPRLPRPRPRPISVPRP | -0.115
RRIRRRPPRLPRPRPRPITRPRP | 0.0299
RRIRRRPPRLPRPRPRPIYPPRP | -0.2

Sequence | shrunken log2 fold change
RRIRRRPPRLPRPRPRPKAEPRP | 0.0655
RRIRRRPPRLPRPRPRPKCMPRP | -0.172
RRIRRRPPRLPRPRPRPKCQPRP | 0.506
RRIRRRPPRLPRPRPRPKDLPRP | -0.0233
RRIRRRPPRLPRPRPRPKDNPRP | 0.0969
RRIRRRPPRLPRPRPRPKDRPRP | 0.09
RRIRRRPPRLPRPRPRPKDSPRP | 0.191
RRIRRRPPRLPRPRPRPKDYPRP | -0.485
RRIRRRPPRLPRPRPRPKEHPRP | 0.345
RRIRRRPPRLPRPRPRPKESPRP | 0.023
RRIRRRPPRLPRPRPRPKETPRP | 0.17
RRIRRRPPRLPRPRPRPKGAPRP | 0.28
RRIRRRPPRLPRPRPRPKGCPRP | 0.0288
RRIRRRPPRLPRPRPRPKGYPRP | 0.172
RRIRRRPPRLPRPRPRPKHMPRP | 0.932
RRIRRRPPRLPRPRPRPKHTPRP | 0.32
RRIRRRPPRLPRPRPRPKIDPRP | -0.000206
RRIRRRPPRLPRPRPRPKIGPRP | 0.396
RRIRRRPPRLPRPRPRPKINPRP | -0.123
RRIRRRPPRLPRPRPRPKKKPRP | -0.00706
RRIRRRPPRLPRPRPRPKKVPRP | 0.242
RRIRRRPPRLPRPRPRPKKYPRP | -0.103
RRIRRRPPRLPRPRPRPKLWPRP | 0.701
RRIRRRPPRLPRPRPRPKMHPRP | 0.443
RRIRRRPPRLPRPRPRPKNEPRP | 0.294

Sequence | shrunken log2 fold change
RRIRRRPPRLPRPRPRPKNKPRP | 0.294
RRIRRRPPRLPRPRPRPKPWPRP | 0.274
RRIRRRPPRLPRPRPRPKQVPRP | 0.351
RRIRRRPPRLPRPRPRPKRFPRP | 0.305
RRIRRRPPRLPRPRPRPKRHPRP | 0.227
RRIRRRPPRLPRPRPRPKSEPRP | 0.0316
RRIRRRPPRLPRPRPRPKTRPRP | 2.44
RRIRRRPPRLPRPRPRPKVNPRP | 0.468
RRIRRRPPRLPRPRPRPKWLPRP | 0.269
RRIRRRPPRLPRPRPRPKWVPRP | 0.242
RRIRRRPPRLPRPRPRPKYAPRP | -0.0331
RRIRRRPPRLPRPRPRPLAEPRP | 0.654
RRIRRRPPRLPRPRPRPLAQPRP | 0.498
RRIRRRPPRLPRPRPRPLCCPRP | 0.293
RRIRRRPPRLPRPRPRPLCIPRP | -0.119
RRIRRRPPRLPRPRPRPLCSPRP | -0.255
RRIRRRPPRLPRPRPRPLEGPRP | 0.0703
RRIRRRPPRLPRPRPRPLFSPRP | -0.0439
RRIRRRPPRLPRPRPRPLGPPRP | 0.304
RRIRRRPPRLPRPRPRPLHFPRP | 0.397
RRIRRRPPRLPRPRPRPLIDPRP | 0.192
RRIRRRPPRLPRPRPRPLIRPRP | -0.295
RRIRRRPPRLPRPRPRPLIWPRP | 0.192
RRIRRRPPRLPRPRPRPLLAPRP | 0.887
RRIRRRPPRLPRPRPRPLLFPRP | 0.278

Sequence | shrunken log2 fold change
RRIRRRPPRLPRPRPRPLLYPRP | 0.138
RRIRRRPPRLPRPRPRPLNAPRP | 0.257
RRIRRRPPRLPRPRPRPLNHPRP | -0.0852
RRIRRRPPRLPRPRPRPLPIPRP | 0.451
RRIRRRPPRLPRPRPRPLPLPRP | 0.0912
RRIRRRPPRLPRPRPRPLPNPRP | -0.0597
RRIRRRPPRLPRPRPRPLSHPRP | 0.0117
RRIRRRPPRLPRPRPRPLTKPRP | 0.132
RRIRRRPPRLPRPRPRPLTMPRP | 0.0632
RRIRRRPPRLPRPRPRPLTPPRP | 0.489
RRIRRRPPRLPRPRPRPLTTPRP | 0.311
RRIRRRPPRLPRPRPRPLVFPRP | -0.0441
RRIRRRPPRLPRPRPRPLWNPRP | 0.117
RRIRRRPPRLPRPRPRPLWPPRP | 0.484
RRIRRRPPRLPRPRPRPLYFPRP | -0.115
RRIRRRPPRLPRPRPRPMAKPRP | 0.315
RRIRRRPPRLPRPRPRPMCNPRP | 0.0275
RRIRRRPPRLPRPRPRPMEGPRP | 0.0518
RRIRRRPPRLPRPRPRPMFLPRP | 0.0789
RRIRRRPPRLPRPRPRPMFVPRP | -0.0498
RRIRRRPPRLPRPRPRPMHAPRP | 1.49
RRIRRRPPRLPRPRPRPMHCPRP | 0.505
RRIRRRPPRLPRPRPRPMIWPRP | 0.0834
RRIRRRPPRLPRPRPRPMKEPRP | 0.135
RRIRRRPPRLPRPRPRPMLMPRP | 0.122
